# Assay results published in IntAct's records for PubMed 12626716.
# B1: mRNA 3'-end-processing protein YTH1 (Saccharomyces cerevisiae), Q06102 (parent)
# chain: MSLIHPDTAKYPFKFEPFLRQEYSFSLDPDRPICEFYNSREGPKSCPRGPLCPKKHVLPIFQNKIVCRHWLRGLCKKNDQCEYLHEYNLRKMPECVFFSKNGYCTQSPDCQYLHIDPASKIPKCENYEMGFCPLGSSCPRRHIKKVFCQRYMTGFCPLGKDECDMEHPQFIIPDEGSKLRIKRDDEINTRKMDEEKERRLNAIINGEV
# partner: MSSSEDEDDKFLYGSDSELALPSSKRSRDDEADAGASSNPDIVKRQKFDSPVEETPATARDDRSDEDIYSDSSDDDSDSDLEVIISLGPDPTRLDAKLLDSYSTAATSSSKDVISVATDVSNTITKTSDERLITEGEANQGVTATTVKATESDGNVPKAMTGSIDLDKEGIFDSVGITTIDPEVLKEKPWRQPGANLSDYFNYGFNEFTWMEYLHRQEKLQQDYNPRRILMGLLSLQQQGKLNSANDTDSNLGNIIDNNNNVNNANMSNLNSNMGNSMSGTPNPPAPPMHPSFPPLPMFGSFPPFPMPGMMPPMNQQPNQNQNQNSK
# Variants of: B1
# Conditions: with fip1_yeast FIP1, P45976
row,Variant,effect of a mutation on the interaction
1,MSLIHPDTAKYPFKFEPFLRQEYSFSLDPDRPICEFYNSREGPKSCPRGPLCPKKHVLPIFQNKIVCRHWLRGLCKKNDQCEYLHEYNLRKMPECVFFSKNGYCTQSPDCQYLHIDPASKIPKCENYEMRFCPLGSSCPRRHIKKVFCQRYMTGFCPLGKDECDMEHPQFIIPDEGSKLRIKRDDEINTRKMDEEKERRLNAIINGEV [G130R],decreasing interaction
